Results reported in US20130121989.
Numbering of substitutions follows the chain as printed.

T1: Tetrahymena K40R α-tubulin (axonemes from a K40R Tetrahymena mutant), P41351
T1 chain: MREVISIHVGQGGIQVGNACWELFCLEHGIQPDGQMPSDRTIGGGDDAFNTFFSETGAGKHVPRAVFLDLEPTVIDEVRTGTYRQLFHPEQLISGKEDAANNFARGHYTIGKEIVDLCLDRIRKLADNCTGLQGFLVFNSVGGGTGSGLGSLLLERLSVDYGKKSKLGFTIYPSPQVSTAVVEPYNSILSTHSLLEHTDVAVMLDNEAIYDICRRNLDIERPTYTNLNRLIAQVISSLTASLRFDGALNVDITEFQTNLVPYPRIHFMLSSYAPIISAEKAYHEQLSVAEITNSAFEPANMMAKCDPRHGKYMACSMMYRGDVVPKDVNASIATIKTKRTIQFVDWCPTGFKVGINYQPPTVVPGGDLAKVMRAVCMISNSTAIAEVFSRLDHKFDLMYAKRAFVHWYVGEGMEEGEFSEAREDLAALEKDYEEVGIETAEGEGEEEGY

T2: Tetrahymena α-tubulin with non-acetylated K40, from the MEC17-KO strain (as axonemes or as purified tubulin), P41351
T2 chain: T1 chain with R40K

B1: GST-MmMEC-17 (recombinant murine MEC-17 expressed in E. coli as a GST fusion) (protein)
chain: MEFPFDVDALFPERITVLDQHLRPPARRPGTTTPARVDLQQQIMTIVDELGKASAKAQHLPAPITSALRMQSNRHVIYILKDTSARPAGKGAIIGFLKVGYKKLFVLDDREAHNEVEPLCILDFYIHESVQRHGHGRELFQHMLQKERVEPHQLAIDRPSPKLLKFLNKHYNLETTVPQVNNFVIFEGFFAHQHRPPTSSLRATRHSRAAVADPIPAAPARKLPPKRAEGDIKPYSSSDREFLKVAVEPPWPLNRAPRRATPPAHPPPRSSSLGNSPDRGPLRPFVPEQELLRSLRLCPPHPTARLLLATDPGGSPAQRRRTRGTPWGLVAQSCHYSRHGGFNTSFLGTGNQERKQGEQEAEDRSASEDRVLLLDGSGEEPTQTGAPRAQAPPPQSWTVGGDIMNARVIRNLQERRSTRPW
B2: GFP-Mec17p (Tetrahymena MEC-17 tagged with GFP, crude enriched soluble fraction from transgenic Tetrahymena) (protein)
chain: MFKNQLLSLSLRIQKLRLCRQGNQLKVLQKSINQLLFKTQSIDQILQYLQQKKKTHQSILENQNQHIHSIGLVSQLTNQKINKQKNQKAMEFNFIINKLVQLDQQGLGVYIPRASRSKVSSQQEQQLGQVLNTMGERSAIAQGLKQVITNYDKVQGTDQRVYIVAEGRTCQGFLKVGQKNLFYRDMMGNIKEIKPLCVLDFYVHESCQRQGYGKLLFEYMIQCEQTSPEKLAYDRPSPKLIAFLKKHYNLVKYIAQNNNFVVFDQYFRSDASSQNKQNQNTRSYSQPYSDYSSQIPTNYPQQQQQQSNSKSYPYKQENNIDLMQHSSSRNNKEFLNAGRAILSKEEIYKKDNLSQQNIENTLNNINNSQYSTKSQQQQQYQKDYQLDKYENNWGADKNIKKPPFPGQDRQLDKIQQKIQQTERELDVVNQQIIKQRQNLSQDPLTQNHRAQNVYNTNQFGTSPWAQTGFNYYSTSSSNYGNHYTYYKK

Experiments:
[1] = biological target: T1, Tetrahymena K40R α-tubulin (axonemes …)
[2] = biological target: T2, Tetrahymena α-tubulin with …

| Protein | in vitro acetylation of R40 (K40R) axonemes, western blot with pan acetyl-K antibodies [1] | in vitro acetylation of K40 axonemes, western blot with pan acetyl-K antibodies [2] | in vitro tubulin acetylation (αTAT) assay on MEC17-KO axonemes with acetyl-CoA, western blot with 6-11 B-1 mAb [2] | in vitro tubulin acetylation (K40 αTAT) assay on MEC17-KO axonemes, western blot with 6-11 B-1 mAb [2] |
| --- | --- | --- | --- | --- |
| B1 | failed to acetylate R40 axonemes | GST-MmMEC-17 modified K40 axonemes | GST-MmMEC-17, but not GST, mediated a robust αTAT activity in vitro |  |
| B2 |  |  |  | A crude GFP-Mec17p-enriched fraction (obtained from transgenic Tetrahymena) had K40 αTAT activity in vitro that was dependent on the presence of acetyl-CoA |
